Assay results published in US20230406935A1 (F STAR THERAPEUTICS, published 2023).

Experiments:
[1] = molecular target: T1, Human PD-L1 expressed on cells (human, UniProt Q9NZQ7 19-290); assay: cell-based or functional assay
[2] = molecular target: T1, Human PD-L1 expressed on cells; assay: flow cytometry, HEK293 cells overexpressing the target, anti-human Fc 488
Description: (§1) Cell binding assays were performed by incubating Fcabs or mAb² proteins with either control HEK293 cells or HEK293 cells overexpressing hPD-L1 or cynomolgus PD-L1 cells for 1 hour at 4° C. Fcab/mAb binding was subsequently detected using an anti-human Fc 488 detection antibody. Fluorescent signal intensities were measured using a FACS canto.

[3] = molecular target: T2, Cynomolgus PD-L1 expressed on HEK 293 cells (cynomolgus, UniProt Q9NZQ7 19-290 (human entry)); assay: as above
T2 construct: also called cell-expressed cynomolgus PD-L1
T2 sequence (Q9NZQ7 other isoform, or with tags, fused parts or gaps limits assumed): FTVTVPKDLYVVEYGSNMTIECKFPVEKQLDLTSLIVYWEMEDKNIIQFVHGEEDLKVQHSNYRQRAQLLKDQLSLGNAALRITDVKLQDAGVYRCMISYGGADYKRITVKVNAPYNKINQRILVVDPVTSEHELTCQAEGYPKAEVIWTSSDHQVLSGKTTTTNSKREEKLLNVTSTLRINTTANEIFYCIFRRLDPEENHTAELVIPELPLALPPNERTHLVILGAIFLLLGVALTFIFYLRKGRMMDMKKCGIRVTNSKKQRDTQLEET
Description: as §1

[4] = molecular target: T3, Monomeric His-tagged human PD-L1 (Acro biosystems PD1-H5229) (human, UniProt Q9NZQ7 19-238); assay: off-rate, binding to hPD-L1, mock mAb^2; instrument not stated
T3 construct: also called hPD-L1-his; PD-L1-his
T3 sequence (Q9NZQ7 19-238 limits assumed): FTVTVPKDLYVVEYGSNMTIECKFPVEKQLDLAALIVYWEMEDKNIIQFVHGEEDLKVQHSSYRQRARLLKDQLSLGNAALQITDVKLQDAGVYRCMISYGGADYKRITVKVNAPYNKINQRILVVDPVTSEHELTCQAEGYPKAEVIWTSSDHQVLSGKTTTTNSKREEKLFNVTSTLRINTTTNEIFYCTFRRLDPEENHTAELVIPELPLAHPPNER

[5] = molecular target: T3, Monomeric His-tagged human PD-L1 (Acro …); assay: SPR Biacore T200, mAb^2 captured by anti-Fab on CM5, monomeric antigen in flow, 1:1 fit
[6] = molecular target: T4, Monomeric cynomolgus PD-L1 (Acro Biosciences PD1-C52H4) (cynomolgus, UniProt Q9NZQ7 19-238 (human entry)); assay: as above
T4 construct: also called cynomolgus monomeric PD-L1
T4 sequence (Q9NZQ7 other isoform, or with tags, fused parts or gaps limits assumed): as the sequence (Q9NZQ7 19-238 limits assumed) above, with A33T, A34S, S62N, R68Q, Q82R, F173L, T185A, T192I, H215L counted along it

T1 sequence (Q9NZQ7 19-290 limits assumed): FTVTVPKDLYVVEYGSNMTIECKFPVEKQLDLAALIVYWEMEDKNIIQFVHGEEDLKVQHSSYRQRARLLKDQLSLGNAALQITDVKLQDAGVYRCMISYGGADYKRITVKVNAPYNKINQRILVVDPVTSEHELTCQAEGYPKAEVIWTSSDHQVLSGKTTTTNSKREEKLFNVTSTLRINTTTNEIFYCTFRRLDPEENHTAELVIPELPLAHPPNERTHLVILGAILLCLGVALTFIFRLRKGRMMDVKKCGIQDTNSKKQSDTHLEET

Binder	DO11.10 T cell activation assay EC50 [1] [nM]	koff [4] [s⁻¹]	further results
Fcab FS17-33-288 with LALA mutation (designed binder) TCPPCPAPEAAGGPSVFLFPPKPKDTLMISRTPEVTCVVVDVSHEDPEVKFNWYVDGVEVHNAKTKPREEQYNSTYRVVSVLTVLHQDWLNGKEYKCKVSNKALPAPIEKTISKAKGQPREPQVYTLPPSRDESGYWVSLTCLVKGFYPSDIVVEWESNGEPQYWAKTTPPVLDSDGSFFLYSKLTVSNWRWQIDDFSCSVMHEALHNHYTQKSLSLSPGK	0.137		
Fcab FS17-33-289 with LALA mutation (designed binder) TCPPCPAPEAAGGPSVFLFPPKPKDTLMISRTPEVTCVVVDVSHEDPEVKFNWYVDGVEVHNAKTKPREEQYNSTYRVVSVLTVLHQDWLNGKEYKCKVSNKALPAPIEKTISKAKGQPREPQVYTLPPSRDESGYWVSLTCLVKGFYPSDIVVEWESNGEPQYWAKTTPPVLDSDGSFFLYSKLTVSNWRWQLDDFSCSVMHEALHNHYTQKSLSLSPGK	0.228		
Fcab FS17-33-296 with LALA mutation (designed binder) TCPPCPAPEAAGGPSVFLFPPKPKDTLMISRTPEVTCVVVDVSHEDPEVKFNWYVDGVEVHNAKTKPREEQYNSTYRVVSVLTVLHQDWLNGKEYKCKVSNKALPAPIEKTISKAKGQPREPQVYTLPPSRDESGYWVSLTCLVKGFYPSDIVVEWESNGEPQYWAKTTPPVLDSDGSFFLYSKLTVSNWRWQVDDFSCSVMHEALHNHYTQKSLSLSPGK	0.166		
Fcab FS17-33-334 with LALA mutation (designed binder) TCPPCPAPEAAGGPSVFLFPPKPKDTLMISRTPEVTCVVVDVSHEDPEVKFNWYVDGVEVHNAKTKPREEQYNSTYRVVSVLTVLHQDWLNGKEYKCKVSNKALPAPIEKTISKAKGQPREPQVYTLPPSRDESGYWVSLTCLVKGFYPSDIAVEWESNGEPQYWAKTTPPVLDSDGSFFLYSKLTVSNWRWQLDDFSCSVMHEALHNHYTQKSLSLSPGK	0.381		
FS17-33-289AA/HelD1.3 mock mAb^2 (bispecific antibody, human IgG1, kappa, L234A L235A, also called F17-33-289AA/HelD1.3; F17-33-289AA/HELD1.3) heavy: QVQLQESGPGLVRPSQTLSLTCTVSGSTFSGYGVNWVRQPPGRGLEWIGMIWGDGNTDYNSALKSRVTMLVDTSKNQFSLRLSSVTAADTAVYYCARERDYRLDYWGQGSLVTVSSASTKGPSVFPLAPSSKSTSGGTAALGCLVKDYFPEPVTVSWNSGALTSGVHTFPAVLQSSGLYSLSSVVTVPSSSLGTQTYICNVNHKPSNTKVDKKVEPKSCDKTHTCPPCPAPEAAGGPSVFLFPPKPKDTLMISRTPEVTCVVVDVSHEDPEVKFNWYVDGVEVHNAKTKPREEQYNSTYRVVSVLTVLHQDWLNGKEYKCKVSNKALPAPIEKTISKAKGQPREPQVYTLPPSRDESGYWVSLTCLVKGFYPSDIVVEWESNGEPQYWAKTTPPVLDSDGSFFLYSKLTVSNWRWQLDDFSCSVMHEALHNHYTQKSLSLSPGK light: DIQMTQSPASLSASVGETVTITCRASGNIHNYLAWYQQKQGKSPQLLVYNAKTLADGVPSRFSGSGSGTQYSLKINSLQPEDFGSYYCQHFWSTPRTFGGGTKLEIKRTVAAPSVFIFPPSDEQLKSGTASVVCLLNNFYPREAKVQWKVDNALQSGNSQESVTEQDSKDSTYSLSSTLTLSKADYEKHKVYACEVTHQGLSSPVTKSFNRGEC	1.55		Kd [2]: 3.9 nM; Kd [3]: 2.2 nM
FS17-33-449AA/HelD1.3 mock mAb^2 (bispecific antibody, human IgG1, kappa, L234A L235A) heavy: QVQLQESGPGLVRPSQTLSLTCTVSGSTFSGYGVNWVRQPPGRGLEWIGMIWGDGNTDYNSALKSRVTMLVDTSKNQFSLRLSSVTAADTAVYYCARERDYRLDYWGQGSLVTVSSASTKGPSVFPLAPSSKSTSGGTAALGCLVKDYFPEPVTVSWNSGALTSGVHTFPAVLQSSGLYSLSSVVTVPSSSLGTQTYICNVNHKPSNTKVDKKVEPKSCDKTHTCPPCPAPEAAGGPSVFLFPPKPKDTLMISRTPEVTCVVVDVSHEDPEVKFNWYVDGVEVHNAKTKPREEQYNSTYRVVSVLTVLHQDWLNGKEYKCKVSNKALPAPIEKTISKAKGQPREPQVYTLPPSRDETGYWVSLTCLVKGFYPSDIAVEWESNGEPQYWAKTTPPVLDSDGSFFLYSKLTVSNWRWQLDDVFSCSVMHEALHNHYTQKSLSLSPGK light: DIQMTQSPASLSASVGETVTITCRASGNIHNYLAWYQQKQGKSPQLLVYNAKTLADGVPSRFSGSGSGTQYSLKINSLQPEDFGSYYCQHFWSTPRTFGGGTKLEIKRTVAAPSVFIFPPSDEQLKSGTASVVCLLNNFYPREAKVQWKVDNALQSGNSQESVTEQDSKDSTYSLSSTLTLSKADYEKHKVYACEVTHQGLSSPVTKSFNRGEC	0.95	0.000311	Kd [5]: 0.49 nM; Kd [6]: 0.9 nM
FS17-33-461AA/HELD1.3 (bispecific antibody) chain 1: QVQLQESGPGLVRPSQTLSLTCTVSGSTFSGYGVNWVRQPPGRGLEWIGMIWGDGNTDYNSALKSRVTMLVDTSKNQFSLRLSSVTAADTAVYYCARERDYRLDYWGQGSLVTVSSASTKGPSVFPLAPSSKSTSGGTAALGCLVKDYFPEPVTVSWNSGALTSGVHTFPAVLQSSGLYSLSSVVTVPSSSLGTQTYICNVNHKPSNTKVDKKVEPKSCDKTHTCPPCPAPEAAGGPSVFLFPPKPKDTLMISRTPEVTCVVVDVSHEDPEVKFNWYVDGVEVHNAKTKPREEQYNSTYRVVSVLTVLHQDWLNGKEYKCKVSNKALPAPIEKTISKAKGQPREPQVYTLPPSRDESGYWVSLTCLVKGFYPSDIAVEWESNGEPQYWAKTTPPVLDSDGSFFLYSKLTVSNWRWSLDDVFSCSVMHEALHNHYTQKSLSLSPGK chain 2: DIQMTQSPASLSASVGETVTITCRASGNIHNYLAWYQQKQGKSPQLLVYNAKTLADGVPSRFSGSGSGTQYSLKINSLQPEDFGSYYCQHFWSTPRTFGGGTKLEIKRTVAAPSVFIFPPSDEQLKSGTASVVCLLNNFYPREAKVQWKVDNALQSGNSQESVTEQDSKDSTYSLSSTLTLSKADYEKHKVYACEVTHQGLSSPVTKSFNRGEC		0.000359	
FS17-33-462AA/HELD1.3 (bispecific antibody) chain 1: QVQLQESGPGLVRPSQTLSLTCTVSGSTFSGYGVNWVRQPPGRGLEWIGMIWGDGNTDYNSALKSRVTMLVDTSKNQFSLRLSSVTAADTAVYYCARERDYRLDYWGQGSLVTVSSASTKGPSVFPLAPSSKSTSGGTAALGCLVKDYFPEPVTVSWNSGALTSGVHTFPAVLQSSGLYSLSSVVTVPSSSLGTQTYICNVNHKPSNTKVDKKVEPKSCDKTHTCPPCPAPEAAGGPSVFLFPPKPKDTLMISRTPEVTCVVVDVSHEDPEVKFNWYVDGVEVHNAKTKPREEQYNSTYRVVSVLTVLHQDWLNGKEYKCKVSNKALPAPIEKTISKAKGQPREPQVYTLPPSRDESGYWVSLTCLVKGFYPSDIAVEWESNGEPQYWAKTTPPVLDSDGSFFLYSKLTVSNWRWQLDAVFSCSVMHEALHNHYTQKSLSLSPGK chain 2: DIQMTQSPASLSASVGETVTITCRASGNIHNYLAWYQQKQGKSPQLLVYNAKTLADGVPSRFSGSGSGTQYSLKINSLQPEDFGSYYCQHFWSTPRTFGGGTKLEIKRTVAAPSVFIFPPSDEQLKSGTASVVCLLNNFYPREAKVQWKVDNALQSGNSQESVTEQDSKDSTYSLSSTLTLSKADYEKHKVYACEVTHQGLSSPVTKSFNRGEC		0.000899	
FS17-33-451AA/HelD1.3 mock mAb^2 (bispecific antibody, human IgG1, kappa, L234A L235A, also called F17-33-451AA/HelD1.3; F17-33-451AA/HELD1.3) heavy: QVQLQESGPGLVRPSQTLSLTCTVSGSTFSGYGVNWVRQPPGRGLEWIGMIWGDGNTDYNSALKSRVTMLVDTSKNQFSLRLSSVTAADTAVYYCARERDYRLDYWGQGSLVTVSSASTKGPSVFPLAPSSKSTSGGTAALGCLVKDYFPEPVTVSWNSGALTSGVHTFPAVLQSSGLYSLSSVVTVPSSSLGTQTYICNVNHKPSNTKVDKKVEPKSCDKTHTCPPCPAPEAAGGPSVFLFPPKPKDTLMISRTPEVTCVVVDVSHEDPEVKFNWYVDGVEVHNAKTKPREEQYNSTYRVVSVLTVLHQDWLNGKEYKCKVSNKALPAPIEKTISKAKGQPREPQVYTLPPSRDEEGYWVSLTCLVKGFYPSDIAVEWESNGEPQYWAKTTPPVLDSDGSFFLYSKLTVSNWRWQLDDVFSCSVMHEALHNHYTQKSLSLSPGK light: DIQMTQSPASLSASVGETVTITCRASGNIHNYLAWYQQKQGKSPQLLVYNAKTLADGVPSRFSGSGSGTQYSLKINSLQPEDFGSYYCQHFWSTPRTFGGGTKLEIKRTVAAPSVFIFPPSDEQLKSGTASVVCLLNNFYPREAKVQWKVDNALQSGNSQESVTEQDSKDSTYSLSSTLTLSKADYEKHKVYACEVTHQGLSSPVTKSFNRGEC	1.03	0.000253	Kd [5]: 0.45 nM; Kd [6]: 0.63 nM
FS17-33-296AA/HelD1.3 mock mAb^2 (bispecific antibody, human IgG1, kappa, L234A L235A, also called F17-33-296AA/HelD1.3; F17-33-296AA/HELD1.3) heavy: QVQLQESGPGLVRPSQTLSLTCTVSGSTFSGYGVNWVRQPPGRGLEWIGMIWGDGNTDYNSALKSRVTMLVDTSKNQFSLRLSSVTAADTAVYYCARERDYRLDYWGQGSLVTVSSASTKGPSVFPLAPSSKSTSGGTAALGCLVKDYFPEPVTVSWNSGALTSGVHTFPAVLQSSGLYSLSSVVTVPSSSLGTQTYICNVNHKPSNTKVDKKVEPKSCDKTHTCPPCPAPEAAGGPSVFLFPPKPKDTLMISRTPEVTCVVVDVSHEDPEVKFNWYVDGVEVHNAKTKPREEQYNSTYRVVSVLTVLHQDWLNGKEYKCKVSNKALPAPIEKTISKAKGQPREPQVYTLPPSRDESGYWVSLTCLVKGFYPSDIVVEWESNGEPQYWAKTTPPVLDSDGSFFLYSKLTVSNWRWQVDDFSCSVMHEALHNHYTQKSLSLSPGK light: DIQMTQSPASLSASVGETVTITCRASGNIHNYLAWYQQKQGKSPQLLVYNAKTLADGVPSRFSGSGSGTQYSLKINSLQPEDFGSYYCQHFWSTPRTFGGGTKLEIKRTVAAPSVFIFPPSDEQLKSGTASVVCLLNNFYPREAKVQWKVDNALQSGNSQESVTEQDSKDSTYSLSSTLTLSKADYEKHKVYACEVTHQGLSSPVTKSFNRGEC	1.12		Kd [2]: 2.7 nM; Kd [3]: 2 nM
anti-PD-L1 mAb YW243.55.S1 (antibody, V domains shown) VH: not shown VL: DIQMTQSPSSLSASVGDRVTITCRASQDVSTAVAWYQQKPGKAPKLLIYSASFLYSGVPSRFSGSGSGTDFTLTISSLQPEDFATYYCQQYLFTPPTFGQGTKVEIKR	0.257		
